Earlier results on five substances are cited in publication PMC7555924.

The target of one data set is Cys95 (UniProt position 121, SKYPNCAYKTT). As to conditions: fully reduced (all disulfides cleaved), molten globule-like conformation.
A further data set concerns the target Cys75 (UniProt position 99, FGDELCKVASL). As to conditions: fully reduced (all disulfides cleaved), molten globule-like conformation.
In the next data set the target is Cys47 (UniProt position 48, SLKASCLYGQL). As to conditions: not stated (the Cys47 thiolate is described as ion-paired with Lys54).
The target of another data set is Cys94 (UniProt position 94, GSRNLCNIPCS). The conditions noted are these: fully reduced (all disulfides cleaved), molten globule-like conformation.
Another data set concerns the target Cys1 (UniProt position 1, -----CGVPAI). The conditions noted are these: fully reduced (all disulfides cleaved), molten globule-like conformation.

As to “Ribonuclease A (reduced, rRNase) (Bos taurus)”, the pKa with Cys95 was 7.9.
In the case of “Serum albumin (reduced, rBSA) (Bos taurus)”, in the data set with Cys75, the pKa is 6.6.
For the substance “Glutathione S-transferase P1-1 (GSTP1-1) (Homo sapiens)”, in the data set with Cys47, the pKa was 3.5.
Take “Lysozyme C (reduced, rLyz) (Gallus gallus)”: the pKa with Cys94 is 6.6.
As to “Chymotrypsinogen A (reduced, rChTg) (Bos taurus)”, the pKa with Cys1 is on record as 8.1.
